Measured values taken from patent US20090092602A1 (published 2009).
Values belong to the binder of their own block, whether it stands above or below them.

Columns and labels:
[1] = molecular target: T1, recombinant human tissue factor (human, UniProt P13726 33-251, limits assumed); experiment: SPR (BIAcore), recombinant human TF immobilized on CM5 chip, antibody 0.125-1 nM; apparent Ka
T1 construct: also called TF; human TF
Method: (§1) The affinity of humanized anti-TF antibody for TF was determined by surface plasmon resonance (BIAcore from Pharmacia Biosensor) with recombinant human tissue factor covalently immobilized on a CM5 sensor chip.

[2] = molecular target: T2, lipidated recombinant human tissue factor (Innovin) (human, UniProt P13726 33-295, limits assumed); experiment: cell-based or functional assay
[3] = molecular target: T1, recombinant human tissue factor; experiment: SPR (BIAcore), recombinant human TF immobilized on CM5 chip, antibody 0.125-1 nM; apparent Kd
Method: as §1

[4] = molecular target: T2, lipidated recombinant human tissue …; experiment: cell-based or functional assay; remark: listed apart in the source

Ka [1]: 7.94e+09 M⁻¹
PT Time (in seconds) at 12.9 nM antibody (12.2 s at 0 nM) [2]: 19.8 s
PT Time (in seconds) at 25.8 nM antibody (12.2 s at 0 nM) [2]: 40 s
PT Time (in seconds) at 51.6 nM antibody (12.2 s at 0 nM) [2]: 101 s
Kd [3]: 0.126 nM
inhibition of TF function in PT assay at above 12.9 nM antibody [4]: ~95%
B1: cH36 chimeric anti-tissue factor antibody (antibody, human IgG4, V domains shown)
VH: EIQLQQSGPELVKPGASVQVSCKTSGYSFTDYNVYWVRQSHGKSLEWIGYIDPYNGITIYDQNFKGKATLTVDKSSTTAFMHLNSLTSDDSAVYFCARDVTTALDFWGQGTTLTVSS
VL: DIQMTQSPASQSASLGESVTITCLASQTIDTWLAWYQQKPGKSPQLLIYAATNLADGVPSRFSGSGSGTKFSFKISSLQAEDFVNYYCQQVYSSPFTFGAGTKLELK
notes: Mouse-human chimera; also called Sunol-cH36; chimeric H36

Ka [1]: 1.56e+10 M⁻¹
Kd [3]: 0.064 nM
B2: H36.D2.B7 murine anti-tissue factor monoclonal antibody (antibody, mouse IgG2a, V domains shown)
VH: B1 VH
VL: B1 VL

PT Time (in seconds) at 12.9 nM antibody (12.2 s at 0 nM) [2]: 18.9 s
PT Time (in seconds) at 25.8 nM antibody (12.2 s at 0 nM) [2]: 33.7 s
PT Time (in seconds) at 51.6 nM antibody (12.2 s at 0 nM) [2]: 82.1 s
inhibition of TF function in PT assay at above 12.9 nM antibody [4]: ~95%
B3: hOAT (humanized IgG One Anti-Tissue Factor antibody) (antibody)
heavy: not shown
light: DIQMTQSPASLSASVGDRVTITCLASQTIDTWLAWYLQKPGKSPQLLIYAATNLADGVPSRFSGSGSGTDFSFTISSLQPEDFATYYCQQVYSSPFTFGQGTKLEIKRTVAAPSVFIFPPSDEQLKSGTASVVCLLNNFYPREAKVQWKVDNALQSGNSQESVTEQDSKDSTYSLSSTLTLSKADYEKHKVYACEVTHQGLSSPVTKSFNRGEC

Ka [1]: 2.99e+09 M⁻¹
PT Time (in seconds) at 12.9 nM antibody (12.2 s at 0 nM) [2]: 20.5 s
PT Time (in seconds) at 25.8 nM antibody (12.2 s at 0 nM) [2]: 41.7 s
PT Time (in seconds) at 51.6 nM antibody (12.2 s at 0 nM) [2]: 94.8 s
Kd [3]: 0.335 nM
inhibition of TF function in PT assay at above 12.9 nM antibody [4]: ~95%
B4: hFAT (humanized IgG Four Anti-Tissue Factor antibody) (antibody)
heavy: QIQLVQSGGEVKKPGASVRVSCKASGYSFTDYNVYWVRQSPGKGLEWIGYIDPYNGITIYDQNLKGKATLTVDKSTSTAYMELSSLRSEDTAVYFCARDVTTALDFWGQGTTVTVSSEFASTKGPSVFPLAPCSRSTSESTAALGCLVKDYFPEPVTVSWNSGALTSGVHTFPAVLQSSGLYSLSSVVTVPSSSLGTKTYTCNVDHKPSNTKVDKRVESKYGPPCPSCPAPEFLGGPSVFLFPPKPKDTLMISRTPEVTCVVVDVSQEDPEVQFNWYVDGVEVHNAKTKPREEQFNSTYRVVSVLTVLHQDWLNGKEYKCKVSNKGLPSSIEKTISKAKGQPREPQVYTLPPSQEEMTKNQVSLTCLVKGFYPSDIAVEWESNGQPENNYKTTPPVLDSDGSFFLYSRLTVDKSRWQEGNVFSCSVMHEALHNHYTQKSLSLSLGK
light: B3 light
notes: also called humanized cH36-IgG4; HC08 + LC09 IgG4 kappa
